Test results published in patent US20150353909A1 (ACADEMIA SINICA, published 2015).

B1: GST-OTU3 (enzyme)
chain: MELKSSSNNNILEQLRNGFARFELVSSPTASVSDSISSTSLPASFISTTKGNSYVFFARINSSMNRSPAAKKVEKYAVDRVKGDGRCLFRALVKGMAFNKGITLNPQRERDDADELRMAVKEVICNDPKEREKYKEALVAITVDESLKRFCQRIGRHDFWGGESELLVLSKLCKQPIIVYIPEHEHGRGGGYGPGFIPIQEYGSEFRGGWGKGKTNKNVVRLLYSGRNHYDLLR
notes: Full-length coding region in pET42, expressed in E. coli; also called OTU3 (GST fusion); not shown: GST and His tags from pET42 vector
B2: GST-OTU7a (enzyme)
chain: MAKTKQQKSKPKKQPHQKQGKDCDLSQFRAQLDALGLKIIQVTADGNCFFRAIADQLEGNEDEHNKYRNMIVLYIVKNREMFEPFIEDDVPFEDYCKTMDDDGTWAGNMELQAASLVTRSNICIHRNMSPRWYIRNFEDTRTRMIHLSYHDGEHYNSVRSKEDACGGPARPVVIEADAKVSAASKQAKATESKSKNKADKCHVNAGAIKVVMSGSCCDNTEKAEQVLLQVNGDVDAAIEFLIADQGMESLTENDTETASASDTINPKHASDSPMENTEQAREELIEEESASGNNSETVQAKCTTQTDDKKIPRNKTCPCGSKKKYKSCCGTATGRSSVKLLVSQTMESKKGRKNLRRGTSNEVEANAPDVGALCI
notes: Full-length coding region in pET42, expressed in E. coli; also called OTU7a (GST fusion); not shown: GST and His tags from pET42 vector
B3: GST-OTU10 (enzyme)
chain: MVSHEENTSIVEWFLGPHPYTYPPYGIEMIHEDDEVAVAHHHHHHQSGEYYREYEDHRSSDVDNDEIIARTLQDDFLQLEIAESNDYSHQNQQQQHQQEGYTNNYSNNNNGYAWNDQSPAVDYSSEWIGNDNDQDGRSDDSVNVFSCSSPSDTDEYVYSWESDQCDADGEFGRRLNQMVPIPYIPKINGEIPPEEEAVSDHERLRNRLEMFDFTEVKVPGDGNCQFRALADQLYKTADRHKHVRRQIVKQLKSRPDSYQGYVPMDFSDYLRKMSRSGEWGDHVTLQAAADAYRVKIVVLTSFKDTCYIEILPTSQESKGVIFLSFWAEVHYNAIYLNRDTSETELQRKRKWWRFGN
notes: also called OTU10 (GST tag); not shown: GST and His tags from pET42 vector
B4: GST-OTU4c (enzyme)
chain: MMICYSPITTCSRNAISIKRHLGSRLYGVVAHGSSKFSCYSLLSGLSRRHYTGFRVSVSNRPSSWHDKGLFGFAYTGVIVSLLVCYSSTSQSAYADSSRDKDANNVHHHSSDGKFHNGKRVYTDYSIIGIPGDGRCLFRSVAHGFCLRSGKLAPGEKMQRELADELRTRVADEFIQRRQETEWFVEGDFDTYVRQIRDPHVWGGEPELFMASHVLQMPITVYMKDDKAGGLISIAEYGQEYGKDDPIRVLYHGFGHYDALLLHESKASIPKSKL
notes: Full-length coding region in pET42, expressed in E. coli; also called OTU4c (GST tag); not shown: GST and His tags from pET42 vector
B5: GST-OTU9 (enzyme)
chain: MGYEPDPDALRWGLHDLEVCTLTNAGSCSSVTRYESGGGGTQGYVREGYNQPVTGYVDNDAVIAQFYQDELSRVARAEASGINSLSPTSVVAQDWPHPHQGQENQGEAIDITQESDILHNHNGNMEDKNVARIRFEGGQSSPSRDDDSVCSVEIEEESWSEVGKRLNQMIPIAHVPKINGELPSEDEQISDHERLFQRLQLYGLVENKIEGDGNCQFRSLSDQLYRSPEHHNFVREQVVNQLAYNREIYEGYVPMAYNDYLKAMKRNGEWGDHVTLQAAADLFGVRMFVITSFKDTCYIEILPHFQKSNRLICLSFWAEVHYNSIYPEGELPIPEGKKKKKYWVF
notes: Full-length coding region in pET42, expressed in E. coli; also called OTU9 (GST fusion); not shown: GST and His tags from pET42 vector

Target: T1, Lys48-linked UB chains (Ub2-7) (UniProt P0CG48 1-76, isopeptide bond between the C-terminus of the distal UB and Lys48 of the proximal UB)
T1 construct: Bought mixture of chain lengths Ub2-7; also called K48-linked UB chains; K48-linked ubiquitin chains
Assay: GST pull-down, immunoblot
Description: (§1) The GST pull-down assay and the detection of pulled-down products by immunoblotting has been previously described (Fatimababy et al., (2010) FEBS J. 277, 796-816; Lin et al., (2011) Plant Cell 23, 2754-2773). The Lys48- and Lys63-linked UB chains (Ub2-7) were purchased from Boston Biochem.

Binding result, no binding:
B1, B2, B3, B4, B5

Target: T2, Lys63-linked UB chains (Ub2-7) (UniProt P0CG48 1-76, isopeptide bond between the C-terminus of the distal UB and Lys63 of the proximal UB)
T2 construct: Bought mixture of chain lengths Ub2-7; also called K63-linked UB chains; K63-linked ubiquitin chains
Assay: GST pull-down, immunoblot
Description: as §1

Binding result, no binding:
B1, B2, B3, B4, B5
